Source: PMC4691284 (Developmental cell, 2015)

B1: FCHSD2 F-BAR domain (domain or fragment, human, UniProt O94868 8-282, looked up)
chain: VKVTQELKNIQVEQMTKLQAKHQAECDLLEDMRTFSQKKAAIEREYAQGMQKLASQYLKRDWPGVKADDRNDYRSMYPVWKSFLEGTMQVAQSRMNICENYKNFISEPARTVRSLKEQQLKRCVDQLTKIQTELQETVKDLAKGKKKYFETEQMAHAVREKADIEAKSKLSLFQSRISLQKASVKLKARRSECNSKATHARNDYLLTLAAANAHQDRYYQTDLVNIMKALDGNVYDHLKDYLIAFSRTELETCQAVQNTFQFLLENSSKVVRDYN
B2: Gas7 F-BAR domain (domain or fragment, human, UniProt O60861 196-456, looked up)
chain: TEWSYCDYFWADKKDPQGNGTVAGFELLLQKQLKGKQMQKEMSEFIRERIKIEEDYAKNLAKLSQNSLASQEEGSLGEAWAQVKKSLADEAEVHLKFSAKLHSEVEKPLMNFRENFKKDMKKCDHHIADLRKQLASRYASVEKARKALTERQRDLEMKTQQLEIKLSNKTEEDIKKARRKSTQAGDDLMRCVDLYNQAQSKWFEEMVTTTLELERLEVERVEMIRQHLCQYTQLRHETDMFNQSTVEPVDQLLRKVDPAKD
B3: FCHSD1 F-BAR domain (domain or fragment, human, UniProt Q86WN1 12-282, looked up)
chain: QEVKLRFLEQLSILQTWQQREADLLEDIRSYSKQRAAIEREYGQALQKLAGPFLKREGHRSGEMDSRGRTVFGAWRCLLDATVAGGQTRLQASDRYRDLAGGTGRSAKEQVLRKGTENLQRAQAEVLQSVRELSRSRKLYGQRERVWALAQEKAADVQARLNRSDHGIFHSRTSLQKLSTKLSAQSAQYSQQLQAARNEYLLNLVATNAHLDHYYQEELPALLKALVSELSEHLRDPLTSLSHTELEAAEVILEHAHRGEQTTSQVSWEQD

Biological target: the molecule itself
Assay: AUC

Stoichiometry N, > 2 dimers:
B1
B2
B3
